Assay results: patent publication US20200399381A1 (I MAB BIOPHARMA US, published 2020)

T1: hIFNAR-1(1aa-409aa) H273A (human, UniProt P17181 28-436)
T1 construct: range 1-409
T1 sequence (looked up): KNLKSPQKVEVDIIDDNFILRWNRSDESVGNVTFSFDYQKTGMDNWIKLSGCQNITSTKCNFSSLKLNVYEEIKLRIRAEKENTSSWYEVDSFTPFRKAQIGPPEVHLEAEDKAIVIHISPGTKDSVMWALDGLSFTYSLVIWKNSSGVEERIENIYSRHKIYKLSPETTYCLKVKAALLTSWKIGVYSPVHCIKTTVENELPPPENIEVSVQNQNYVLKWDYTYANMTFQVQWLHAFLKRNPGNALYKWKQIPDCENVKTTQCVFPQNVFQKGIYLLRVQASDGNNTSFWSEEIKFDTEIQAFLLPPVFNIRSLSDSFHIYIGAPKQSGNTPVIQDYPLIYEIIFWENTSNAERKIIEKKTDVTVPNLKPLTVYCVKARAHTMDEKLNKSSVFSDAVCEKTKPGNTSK

T2: hIFNAR-1(1aa-409aa) K276A (human, UniProt P17181 28-436)
T2 construct: range 1-409
T2 sequence (looked up): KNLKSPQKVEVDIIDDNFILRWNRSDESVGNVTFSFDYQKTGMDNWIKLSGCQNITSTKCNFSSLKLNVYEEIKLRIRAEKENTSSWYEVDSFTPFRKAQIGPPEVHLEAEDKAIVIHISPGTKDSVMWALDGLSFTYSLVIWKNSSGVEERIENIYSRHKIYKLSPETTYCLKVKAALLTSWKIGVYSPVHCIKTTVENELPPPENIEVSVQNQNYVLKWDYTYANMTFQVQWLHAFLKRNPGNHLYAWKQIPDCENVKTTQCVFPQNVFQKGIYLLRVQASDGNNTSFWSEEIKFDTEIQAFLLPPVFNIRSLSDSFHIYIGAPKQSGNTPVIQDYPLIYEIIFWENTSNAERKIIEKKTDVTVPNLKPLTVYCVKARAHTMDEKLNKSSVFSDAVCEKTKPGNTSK

T3: hIFNAR-1(1aa-409aa) L274A (human, UniProt P17181 28-436)
T3 construct: range 1-409
T3 sequence (looked up): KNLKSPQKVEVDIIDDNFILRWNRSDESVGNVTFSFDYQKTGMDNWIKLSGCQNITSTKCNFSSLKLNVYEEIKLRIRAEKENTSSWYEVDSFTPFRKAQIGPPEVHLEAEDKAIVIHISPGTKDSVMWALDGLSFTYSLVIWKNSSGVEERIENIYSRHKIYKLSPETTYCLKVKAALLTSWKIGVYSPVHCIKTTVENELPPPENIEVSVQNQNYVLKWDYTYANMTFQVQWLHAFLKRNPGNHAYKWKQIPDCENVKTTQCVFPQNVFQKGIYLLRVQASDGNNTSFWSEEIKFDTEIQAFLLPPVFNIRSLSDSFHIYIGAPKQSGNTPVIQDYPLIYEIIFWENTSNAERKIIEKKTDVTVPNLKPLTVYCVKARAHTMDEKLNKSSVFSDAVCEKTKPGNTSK

T4: hIFNAR-1(1aa-409aa) Y275A (human, UniProt P17181 28-436)
T4 construct: range 1-409
T4 sequence (looked up): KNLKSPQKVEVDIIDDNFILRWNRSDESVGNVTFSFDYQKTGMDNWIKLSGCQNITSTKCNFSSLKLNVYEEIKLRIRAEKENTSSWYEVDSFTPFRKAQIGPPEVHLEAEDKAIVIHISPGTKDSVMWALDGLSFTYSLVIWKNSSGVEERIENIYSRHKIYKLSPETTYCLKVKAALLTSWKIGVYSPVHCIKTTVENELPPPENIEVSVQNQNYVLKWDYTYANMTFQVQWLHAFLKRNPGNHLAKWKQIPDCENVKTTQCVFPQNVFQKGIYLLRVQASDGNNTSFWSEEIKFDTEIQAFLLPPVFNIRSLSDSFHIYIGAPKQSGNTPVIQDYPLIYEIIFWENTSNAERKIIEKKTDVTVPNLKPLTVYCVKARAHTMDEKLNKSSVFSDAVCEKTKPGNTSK

T5: hIFNAR-1(1aa-409aa) K278A (human, UniProt P17181 28-436)
T5 construct: range 1-409
T5 sequence (looked up): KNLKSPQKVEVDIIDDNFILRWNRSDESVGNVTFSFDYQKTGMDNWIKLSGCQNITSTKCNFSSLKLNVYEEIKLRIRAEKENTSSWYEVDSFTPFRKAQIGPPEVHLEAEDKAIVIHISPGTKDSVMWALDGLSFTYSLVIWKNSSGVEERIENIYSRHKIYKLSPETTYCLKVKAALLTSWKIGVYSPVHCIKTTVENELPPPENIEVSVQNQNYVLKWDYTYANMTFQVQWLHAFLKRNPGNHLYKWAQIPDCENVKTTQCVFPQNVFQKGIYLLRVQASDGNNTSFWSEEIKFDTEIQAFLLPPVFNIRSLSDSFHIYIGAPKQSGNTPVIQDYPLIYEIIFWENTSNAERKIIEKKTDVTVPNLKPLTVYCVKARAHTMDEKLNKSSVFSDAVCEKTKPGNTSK

T6: human IFNAR-1 protein (form not stated) (human, UniProt P17181 28-436, limits assumed)
T6 construct: bispecific ELISA
T6 sequence (looked up): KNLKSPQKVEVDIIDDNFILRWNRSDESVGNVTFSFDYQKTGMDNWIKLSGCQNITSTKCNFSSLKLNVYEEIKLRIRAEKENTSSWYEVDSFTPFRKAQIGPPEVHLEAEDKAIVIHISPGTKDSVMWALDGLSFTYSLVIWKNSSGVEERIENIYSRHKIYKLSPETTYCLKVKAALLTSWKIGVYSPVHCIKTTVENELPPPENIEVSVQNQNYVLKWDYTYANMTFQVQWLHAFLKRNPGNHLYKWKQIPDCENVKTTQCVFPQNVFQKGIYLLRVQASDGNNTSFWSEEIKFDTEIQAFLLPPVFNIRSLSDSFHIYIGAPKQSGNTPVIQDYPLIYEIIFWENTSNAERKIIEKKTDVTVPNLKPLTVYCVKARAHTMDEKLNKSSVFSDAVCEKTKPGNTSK

T7: human IFNAR-1 on cells (human, UniProt P17181 28-557)
T7 sequence (looked up): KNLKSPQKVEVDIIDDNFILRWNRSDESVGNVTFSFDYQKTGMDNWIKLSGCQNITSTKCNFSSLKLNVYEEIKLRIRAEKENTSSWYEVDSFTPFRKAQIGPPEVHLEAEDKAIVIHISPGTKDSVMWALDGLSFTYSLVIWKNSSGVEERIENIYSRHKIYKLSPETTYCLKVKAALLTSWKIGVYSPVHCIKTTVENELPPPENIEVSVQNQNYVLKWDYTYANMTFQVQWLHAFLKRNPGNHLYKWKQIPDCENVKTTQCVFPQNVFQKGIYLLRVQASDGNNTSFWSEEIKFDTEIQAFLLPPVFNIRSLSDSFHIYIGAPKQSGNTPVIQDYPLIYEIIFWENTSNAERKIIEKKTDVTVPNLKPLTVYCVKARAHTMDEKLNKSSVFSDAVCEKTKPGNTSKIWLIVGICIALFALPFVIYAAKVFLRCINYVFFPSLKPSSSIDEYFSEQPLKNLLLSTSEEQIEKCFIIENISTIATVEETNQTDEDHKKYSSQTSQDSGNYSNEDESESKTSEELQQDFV


Key:
[1] = molecular target: T1, hIFNAR-1(1aa-409aa) H273A; test: flow cytometry on alanine scan clone, normalised to WT
Excerpt: (§1) For each point, background fluorescence was subtracted from the raw data, which were then normalized to Fab reactivity with WT target protein. For each mutant clone, the mean binding value was plotted as a function of expression (represented by control reactivity).

[2] = molecular target: T2, hIFNAR-1(1aa-409aa) K276A; test: as above
Excerpt: as §1

[3] = molecular target: T3, hIFNAR-1(1aa-409aa) L274A; test: as above
Excerpt: as §1

[4] = molecular target: T4, hIFNAR-1(1aa-409aa) Y275A; test: as above
Excerpt: as §1

[5] = molecular target: T5, hIFNAR-1(1aa-409aa) K278A; test: as above
Excerpt: as §1

[6] = molecular target: T6, human IFNAR-1 protein (form not stated); test: ELISA on human IFNAR-1 protein
human IFNAR-1 on cells = molecular target: T7, human IFNAR-1 on cells; test: cell-based or functional assay

| Binder | Binding Reactivity (% WT) [1] [% WT] | Binding Reactivity (% WT) [2] [% WT] | Binding Reactivity (% WT) [3] [% WT] | Binding Reactivity (% WT) [4] [% WT] | Binding Reactivity (% WT) [5] [% WT] | EC50 (read off the curve) [6] [nM] | EC50 (nM), IFNα2b-mediated anti-viral assay (Huh7-Con1b HCV replicon luciferase) (human IFNAR-1 on cells) [nM] |
| --- | --- | --- | --- | --- | --- | --- | --- |
| Anifrolumab (antibody, V domains shown) VH: EVQLVQSGAEVKKPGESLKISCKGSGYIFTNYWIAWVRQMPGKGLESMGIIYPGDSDIRYSPSFQGQVTISADKSITTAYLQWSSLKASDTAMYYCARHDIEGFDYWGRGTLVTVSS VL: EIVLTQSPGTLSLSPGERATLSCRASQSVSSSFFAWYQQKPGQAPRLLIYGASSRATGIPDRLSGSGSGTDFTLTITRLEPEDFAVYYCQQYDSSAITFGQGTRLEIKR | 88.1 | 99.4 | 106 | 146 | 105 | – | – |
| 8G11 chimeric antibody (antibody, V domains shown, also called chimeric 8G11) VH: EVQLQQSGAELVKPGASVKLSCTGFGFNIKDYYMHWVKQRAEQGLEWIGRIDPEDGETKYAPKFQGKATITADTSSNTAYLQVSSLTSEDTAVYYCARGGNFYVMDYWGQGTSVTVSS VL: DIVMTQSQKFMSTSVGDRVSVTCKASQNVGTNVVWYQQKPGQSPKVLIYSASYRVSGVPDRFTGSGSGTDFTLIISNVQSEDLAEYFCQQKNNYPYTFGGGTKLEIK | – | – | – | – | – | ~0.1 | 7.73 |
| 8G11 Fab (Fab, V domains shown) VH: EVQLQQSGAELVKPGASVKLSCTGFGFNIKDYYMHWVKQRAEQGLEWIGRIDPEDGETKYAPKFQGKATITADTSSNTAYLQVSSLTSEDTAVYYCARGGNFYVMDYWGQGTSVTVSS VL: DIVMTQSQKFMSTSVGDRVSVTCKASQNVGTNVVWYQQKPGQSPKVLIYSASYRVSGVPDRFTGSGSGTDFTLIISNVQSEDLAEYFCQQKNNYPYTFGGGTKLEIK | 31.2 | 1.5 | 22.7 | 19.1 | 3.9 | – | – |
